# Reference: publication PMC4259810
# Legend:
# [1] = target: DLC1 Rho-GAP domain, 609-878 (UniProt Q96QB1); assay: GST pull-down from cotransfected cells, GFP blot; conditions: sites S120,S205,S422,S509
# DLC1 500-1,091 = DLC1 500-1,091 (UniProt Q96QB1); assay: GST pull-down from cotransfected cells, GFP blot; conditions: reference: GST-(1–550)-WT; sites S120,S205,S422,S509
Substance,binding against the reference ([1]; reference: GST-(1–550)-WT),"binding against the reference (DLC1 500-1,091)",binding against the reference ([1]; reference: GST-DLC1(80–550)-WT)
DLC1 1-550 (from UniProt Q96QB1-1) GST-(1–550)-4A,stronger,stronger,
DLC1 80-550 (from UniProt Q96QB1-1) GST-DLC1(80–550)-4A,,,stronger
